B1: peptide-Alkaline phosphatase-His6 fusion protein of clone 11 (other)
chain: HTCFYPTLMPPELCFDTPEMPVLENRAAQGDITTPGGARRLTGDQTAALRDSLSDKPAKNIILLIGDGMGDSEITAARNYAEGAGGFFKGIDALPLTGQYTHYALNKKTGKPDYVTDSAASATAWSTGVKTYNGALGVDIHEKDHPTILEMAKAAGLATGNVSTAELQGATPAALVAHVTSRKCYGPSATSEKCPGNALEKGGKGSITEQLLNARADVTLGGGAKTFAETATAGEWQGKTLREQAQTRGYQLVSDAASLNSVTEANQQKPLLGLFADGNMPVRWLGPKATYHGNIDKPAVTCTPNPQRNDSVPTLAQMTDKAIELLSKNEKGFFLQVEGASIDKQNHAANPCGQIGETVDLDEAVQRALEFAKKEGNTLVIVTADHAHASQIVAPDTKAPGLTQALNTKDGAVMVMSYGNSEEDSQEHTGSQLRIAAYGPHAANVVGLTDQTDLFYTMKAALGLKVPGGSGGGSGGGSGGGSGTPEMPVLENRAAQGDITTPGGARRLTGDQTAALRDSLSDKPAKNIILLIGDGMGDSEITAARNYAEGAGGFFKGIDALPLTGQYTHYALNKKTGKPDYVTDSAASATAWSTGVKTYNGALGVDIHEKDHPTILEMAKAAGLATGNVSTAELQGATPAALVAHVTSRKCYGPSATSEKCPGNALEKGGKGSITEQLLNARADVTLGGGAKTFAETATAGEWQGKTLREQAQTRGYQLVSDAASLNSVTEANQQKPLLGLFADGNMPVRWLGPKATYHGNIDKPAVTCTPNPQRNDSVPTLAQMTDKAIELLSKNEKGFFLQVEGASIDKQNHAANPCGQIGETVDLDEAVQRALEFAKKEGNTLVIVTADHAHASQIVAPDTKAPGLTQALNTKDGAVMVMSYGNSEEDSQEHTGSQLRIAAYGPHAANVVGLTDQTDLFYTMKAALGLKVPGNSHHHHHH
notes: Tested as bacterial culture supernatant; also called peptide-AP fusion clone 11
B2: peptide-Alkaline phosphatase-His6 fusion protein of clone 12 (other)
chain: SNCPPLDMRLTELCVMTPEMPVLENRAAQGDITTPGGARRLTGDQTAALRDSLSDKPAKNIILLIGDGMGDSEITAARNYAEGAGGFFKGIDALPLTGQYTHYALNKKTGKPDYVTDSAASATAWSTGVKTYNGALGVDIHEKDHPTILEMAKAAGLATGNVSTAELQGATPAALVAHVTSRKCYGPSATSEKCPGNALEKGGKGSITEQLLNARADVTLGGGAKTFAETATAGEWQGKTLREQAQTRGYQLVSDAASLNSVTEANQQKPLLGLFADGNMPVRWLGPKATYHGNIDKPAVTCTPNPQRNDSVPTLAQMTDKAIELLSKNEKGFFLQVEGASIDKQNHAANPCGQIGETVDLDEAVQRALEFAKKEGNTLVIVTADHAHASQIVAPDTKAPGLTQALNTKDGAVMVMSYGNSEEDSQEHTGSQLRIAAYGPHAANVVGLTDQTDLFYTMKAALGLKVPGGSGGGSGGGSGGGSGTPEMPVLENRAAQGDITTPGGARRLTGDQTAALRDSLSDKPAKNIILLIGDGMGDSEITAARNYAEGAGGFFKGIDALPLTGQYTHYALNKKTGKPDYVTDSAASATAWSTGVKTYNGALGVDIHEKDHPTILEMAKAAGLATGNVSTAELQGATPAALVAHVTSRKCYGPSATSEKCPGNALEKGGKGSITEQLLNARADVTLGGGAKTFAETATAGEWQGKTLREQAQTRGYQLVSDAASLNSVTEANQQKPLLGLFADGNMPVRWLGPKATYHGNIDKPAVTCTPNPQRNDSVPTLAQMTDKAIELLSKNEKGFFLQVEGASIDKQNHAANPCGQIGETVDLDEAVQRALEFAKKEGNTLVIVTADHAHASQIVAPDTKAPGLTQALNTKDGAVMVMSYGNSEEDSQEHTGSQLRIAAYGPHAANVVGLTDQTDLFYTMKAALGLKVPGNSHHHHHH
notes: Tested as bacterial culture supernatant; also called peptide-AP fusion clone 12
B3: peptide-Alkaline phosphatase-His6 fusion protein of clone 9 (other)
chain: FTCAVYSLSELDCRDTPEMPVLENRAAQGDITTPGGARRLTGDQTAALRDSLSDKPAKNIILLIGDGMGDSEITAARNYAEGAGGFFKGIDALPLTGQYTHYALNKKTGKPDYVTDSAASATAWSTGVKTYNGALGVDIHEKDHPTILEMAKAAGLATGNVSTAELQGATPAALVAHVTSRKCYGPSATSEKCPGNALEKGGKGSITEQLLNARADVTLGGGAKTFAETATAGEWQGKTLREQAQTRGYQLVSDAASLNSVTEANQQKPLLGLFADGNMPVRWLGPKATYHGNIDKPAVTCTPNPQRNDSVPTLAQMTDKAIELLSKNEKGFFLQVEGASIDKQNHAANPCGQIGETVDLDEAVQRALEFAKKEGNTLVIVTADHAHASQIVAPDTKAPGLTQALNTKDGAVMVMSYGNSEEDSQEHTGSQLRIAAYGPHAANVVGLTDQTDLFYTMKAALGLKVPGGSGGGSGGGSGGGSGTPEMPVLENRAAQGDITTPGGARRLTGDQTAALRDSLSDKPAKNIILLIGDGMGDSEITAARNYAEGAGGFFKGIDALPLTGQYTHYALNKKTGKPDYVTDSAASATAWSTGVKTYNGALGVDIHEKDHPTILEMAKAAGLATGNVSTAELQGATPAALVAHVTSRKCYGPSATSEKCPGNALEKGGKGSITEQLLNARADVTLGGGAKTFAETATAGEWQGKTLREQAQTRGYQLVSDAASLNSVTEANQQKPLLGLFADGNMPVRWLGPKATYHGNIDKPAVTCTPNPQRNDSVPTLAQMTDKAIELLSKNEKGFFLQVEGASIDKQNHAANPCGQIGETVDLDEAVQRALEFAKKEGNTLVIVTADHAHASQIVAPDTKAPGLTQALNTKDGAVMVMSYGNSEEDSQEHTGSQLRIAAYGPHAANVVGLTDQTDLFYTMKAALGLKVPGNSHHHHHH
notes: Tested as bacterial culture supernatant; also called peptide-AP fusion clone 9
B4: peptide-Alkaline phosphatase-His6 fusion protein of clone 8 (other)
chain: PVCPSFCYDQYVCPTTPEMPVLENRAAQGDITTPGGARRLTGDQTAALRDSLSDKPAKNIILLIGDGMGDSEITAARNYAEGAGGFFKGIDALPLTGQYTHYALNKKTGKPDYVTDSAASATAWSTGVKTYNGALGVDIHEKDHPTILEMAKAAGLATGNVSTAELQGATPAALVAHVTSRKCYGPSATSEKCPGNALEKGGKGSITEQLLNARADVTLGGGAKTFAETATAGEWQGKTLREQAQTRGYQLVSDAASLNSVTEANQQKPLLGLFADGNMPVRWLGPKATYHGNIDKPAVTCTPNPQRNDSVPTLAQMTDKAIELLSKNEKGFFLQVEGASIDKQNHAANPCGQIGETVDLDEAVQRALEFAKKEGNTLVIVTADHAHASQIVAPDTKAPGLTQALNTKDGAVMVMSYGNSEEDSQEHTGSQLRIAAYGPHAANVVGLTDQTDLFYTMKAALGLKVPGGSGGGSGGGSGGGSGTPEMPVLENRAAQGDITTPGGARRLTGDQTAALRDSLSDKPAKNIILLIGDGMGDSEITAARNYAEGAGGFFKGIDALPLTGQYTHYALNKKTGKPDYVTDSAASATAWSTGVKTYNGALGVDIHEKDHPTILEMAKAAGLATGNVSTAELQGATPAALVAHVTSRKCYGPSATSEKCPGNALEKGGKGSITEQLLNARADVTLGGGAKTFAETATAGEWQGKTLREQAQTRGYQLVSDAASLNSVTEANQQKPLLGLFADGNMPVRWLGPKATYHGNIDKPAVTCTPNPQRNDSVPTLAQMTDKAIELLSKNEKGFFLQVEGASIDKQNHAANPCGQIGETVDLDEAVQRALEFAKKEGNTLVIVTADHAHASQIVAPDTKAPGLTQALNTKDGAVMVMSYGNSEEDSQEHTGSQLRIAAYGPHAANVVGLTDQTDLFYTMKAALGLKVPGNSHHHHHH
notes: Tested as bacterial culture supernatant; also called peptide-AP fusion clone 8

Target: T1, soluble IGF1R (sIGF1R), extracellular domain of human insulin-like growth factor 1 receptor, carboxy-terminal … (human, UniProt P08069 31-932)
T1 construct: Bought from R&D Systems; GenBank NP-000866 is printed for the whole receptor; also called IFG1R
Assay: ELISA, culture supernatant on 2 µg/ml coated sIGF1R, Attophos detection
Method: The binding of purified peptide-AP fusion proteins to sIGF1R was assessed using ELISA against immobilized sIGF1R. Briefly, bacteria transformed with each peptide-AP fusion expression vector were grown overnight and the following day the cultures were clarified by centrifugation at 4,500 rpm, 4° C. The supernatants were collected and 75 μl of each supernatant was assayed for binding to 2 μg/ml sIGF1R immobilized on ELISA plates. The bound peptides were detected using the Attophos Substrate (Roche, Indianapolis, Ind.) following the manufacturer's recommendation and read using a Molecular Devices M5 plate reader.

binding result	Binder
binds	B1
binds	B2
binds	B3
binds	B4
